Consider 6 substances from the supplement of paper PMC5998384.

In data set [1] the test system is HeLa Kyoto. In words: solubility in G1/S (NP-40 vs SDS abundance) (log2 ratio); higher = more soluble. To be noted: cell cycle stage: G1/S.
The subject of data set [2] is HeLa Kyoto. In words: melting temperature (median over replicates), in situ; higher = more thermally stable.
For data set [3], the system named is HeLa Kyoto. Kind of data set: solubility change mitosis vs G1/S (difference of NP-40 vs SDS log2 ratios) (log2 ratio difference); higher = more soluble in mitosis.
In data set [4] the test system is HeLa Kyoto. Kind of data set: thermal stability score vs G1/S (z-score of summed log2 fold changes over temperatures); higher = more thermally stable than in G1/S.
Where [5] appears, read: cell cycle stage: early G1 (4.5 h after nocodazole release).
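Throughout, for melting temperature (median over replicates), in situ: HeLa Kyoto cells synchronized by double thymidine or nocodazole block, proteins quantified by TMT10plex mass spectrometry, three independent biological replicates.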
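Throughout, for solubility change mitosis vs G1/S (difference of NP-40 vs SDS log2 ratios): synchronized HeLa Kyoto cells (double thymidine block for G1/S, nocodazole release for mitosis), protein amounts in NP-40 versus SDS lysates quantified by mass spectrometry, three biological replicates.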
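Throughout, for solubility in G1/S (NP-40 vs SDS abundance): HeLa Kyoto cells arrested at G1/S by double thymidine block, proteins quantified by TMT10plex mass spectrometry in mild NP-40 versus SDS extracts, three biological replicates.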
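Throughout, for thermal stability score vs G1/S (z-score of summed log2 fold changes over temperatures): synchronized HeLa Kyoto cells, proteins quantified by TMT10plex mass spectrometry, three biological replicates, mitosis taken 0.5 h after nocodazole release, G1/S directly after double thymidine block.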

For the substance ZFYVE16, in the data set on HeLa Kyoto [1], the “solubility in G1/S (log2)” value was -0.0282. The values for the melting temperature in the data set with HeLa Kyoto [2] (cell cycle stage: G1/S) and in the data set on HeLa Kyoto [2] (cell cycle stage: mitosis) were 53.2 °C and 52.7 °C, respectively. Further, the “solubility change mitosis (log2)” value in the data set on HeLa Kyoto [3] was -0.171. For the same substance, the thermal stability score is -2.53 in the data set on HeLa Kyoto [4] (setting [5]) and -1.48 with HeLa Kyoto [4] (cell cycle stage: mitosis).
For “MVCGGFACSKNCLCALNLLYTLVSLLLIGIAAWGIGFGLISSLRVVGVVIAVGIFLFLIALVGLIGAVKHHQVLLFFYMIILLLVFIVQFSVSCACLALNQEQQGQLLEVGWNNTASARNDIQRNLNCCGFRSVNPNDTCLASCVKSDHSCSPCAPIIGEYAGEVLRFVGGIGLFFSFTEILGVWLTYRYRNQKDPRANPSAFL [TSPAN13]”, the “solubility in G1/S (log2)” value in the data set on HeLa Kyoto [1] is 0.0697. The values for the melting temperature with HeLa Kyoto [2] (cell cycle stage: G1/S) and in the data set on HeLa Kyoto [2] (cell cycle stage: mitosis) were 57.7 °C and 57.6 °C, respectively. Further, in the data set on HeLa Kyoto [3], the “solubility change mitosis (log2)” value was -0.273. In addition, the thermal stability score with HeLa Kyoto [4] (setting [5]) is -0.55; with HeLa Kyoto [4] (cell cycle stage: mitosis), -1.07.
Turning to “MAAAVVLAAGLRAARRAVAATGVRGGQVRGAAGVTDGNEVAKAQQATPGGAAPTIFSRILDKSLPADILYEDQQCLVFRDVAPQAPVHFLVIPKKPIPRISQAEEEDQQLLGHLLLVAKQTAKAEGLGDGYRLVINDGKLGAQSVYHLHIHVLGGRQLQWPPG [HINT2]”, the “solubility in G1/S (log2)” value in the data set on HeLa Kyoto [1] amounted to 0.565. In addition, the melting temperature in the data set with HeLa Kyoto [2] (cell cycle stage: G1/S) and with HeLa Kyoto [2] (cell cycle stage: mitosis) was 54.9 °C each time. For the same substance, the “solubility change mitosis (log2)” value in the data set with HeLa Kyoto [3] is -0.0342. For the same substance, the values for the thermal stability score with HeLa Kyoto [4] (setting [5]) and in the data set with HeLa Kyoto [4] (cell cycle stage: mitosis) were -0.929 and -2.12, respectively.
Consider “MPLVTRNIEPRHLCRQTLPSVRSELECVTNITLANVIRQLGSLSKYAEDIFGELFTQANTFASRVSSLAERVDRLQVKVTQLDPKEEEVSLQGINTRKAFRSSTIQDQKLFDRNSLPVPVLETYNTCDTPPPLNNLTPYRDDGKEALKFYTDPSYFFDLWKEKMLQDTKDIMKEKRKHRKEKKDNPNRGNVNPRKIKTRKEEWEKMKMGQEFVESKEKLGTSGYPPTLVYQNGSIGCVENVDASSYPPPPQSDSASSPSPSFSEDNLPPPPAEFSYPVDNQRGSGLAGPKRSSVVSPSHPPPAPPLGSPPGPKPGFAPPPAPPPPPPPMIGIPPPPPPVGFGSPGTPPPPSPPSFPPHPDFAAPPPPPPPPAADYPTLPPPPLSQPTGGAPPPPPPPPPPGPPPPPFTGADGQPAIPPPLSDTTKPKSSLPAVSDARSDLLSAIRQGFQLRRVEEQREQEKRDVVGNDVATILSRRIAVEYSDSEDDSSEFDEDDWSD [WASF2]”, for which the “solubility in G1/S (log2)” value with HeLa Kyoto [1] was 0.196. In addition, the melting temperature in the data set with HeLa Kyoto [2] (cell cycle stage: G1/S) is 51.8 °C; in the data set on HeLa Kyoto [2] (cell cycle stage: mitosis) it was 51.5 °C. The “solubility change mitosis (log2)” value in the data set on HeLa Kyoto [3] was -0.146. For the same substance, the thermal stability score with HeLa Kyoto [4] (setting [5]) was found to be 0.736; in the data set on HeLa Kyoto [4] (cell cycle stage: mitosis), 1.04.
In the case of “MALLPRALSAGAGPSWRRAARAFRGFLLLLPEPAALTRALSRAMACRQEPQPQGPPPAAGAVASYDYLVIGGGSGGLASARRAAELGARAAVVESHKLGGTCVNVGCVPKKVMWNTAVHSEFMHDHADYGFPSCEGKFNWRVIKEKRDAYVSRLNAIYQNNLTKSHIEIIRGHAAFTSDPKPTIEVSGKKYTAPHILIATGGMPSTPHESQIPGASLGITSDGFFQLEELPGRSVIVGAGYIAVEMAGILSALGSKTSLMIRHDKVLRSFDSMISTNCTEELENAGVEVLKFSQVKEVKKTLSGLEVSMVTAVPGRLPVMTMIPDVDCLLWAIGRVPNTKDLSLNKLGIQTDDKGHIIVDEFQNTNVKGIYAVGDVCGKALLTPVAIAAGRKLAHRLFEYKEDSKLDYNNIPTVVFSHPPIGTVGLTEDEAIHKYGIENVKTYSTSFTPMYHAVTKRKTKCVMKMVCANKEEKVVGIHMQGLGCDEMLQGFAVAVKMGATKADFDNTVAIHPTSSEELVTLR [GSR]”, the “solubility in G1/S (log2)” value with HeLa Kyoto [1] was found to be 0.127. In addition, the melting temperature stood at 58.8 °C with HeLa Kyoto [2] (cell cycle stage: G1/S) and 59.7 °C in the data set on HeLa Kyoto [2] (cell cycle stage: mitosis). For the same substance, in the data set on HeLa Kyoto [3], the “solubility change mitosis (log2)” value was -0.09. For the same substance, the values for the thermal stability score in the data set on HeLa Kyoto [4] (setting [5]) and in the data set on HeLa Kyoto [4] (cell cycle stage: mitosis) were -1.7 and -2.29, respectively.
For USP16, the “solubility in G1/S (log2)” value in the data set on HeLa Kyoto [1] was -0.321. Besides, the melting temperature in the data set with HeLa Kyoto [2] (cell cycle stage: G1/S) came out at 50.4 °C; in the data set with HeLa Kyoto [2] (cell cycle stage: mitosis) it was 49.5 °C. The “solubility change mitosis (log2)” value in the data set with HeLa Kyoto [3] is 0.122. Moreover, the thermal stability score was -0.114 in the data set on HeLa Kyoto [4] (setting [5]) and 0.382 in the data set with HeLa Kyoto [4] (cell cycle stage: mitosis).
